Experimental data as given in publication PMC5269676 (Scientific Reports, 2017).
Residue numbers refer to the chain shown, from its start. Blank lines part the entries; values can stand above or below the binder they belong to.

Columns and labels:
[1] = molecular target: T1, Kelch domain of Keap1; assay: SPR; Biacore competition assay; concentration of LS146-scFv varied, percent inhibition fitted to a variable slope model; what was immobilised is not told; conditions: both partners purified
T1 construct: Cloned into pET-28a in frame with an N-terminal His tag and a TEV protease cleavage site; stored in 20 mM Tris pH 7.5, 5 mM DTT; source: E. coli BL21 (DE3), purified (Ni-NTA, His tag cut off, Ni-NTA flow-through, Superdex 75, if necessary Mono Q); not shown: His tag, N-terminal, cleaved
T1 chain: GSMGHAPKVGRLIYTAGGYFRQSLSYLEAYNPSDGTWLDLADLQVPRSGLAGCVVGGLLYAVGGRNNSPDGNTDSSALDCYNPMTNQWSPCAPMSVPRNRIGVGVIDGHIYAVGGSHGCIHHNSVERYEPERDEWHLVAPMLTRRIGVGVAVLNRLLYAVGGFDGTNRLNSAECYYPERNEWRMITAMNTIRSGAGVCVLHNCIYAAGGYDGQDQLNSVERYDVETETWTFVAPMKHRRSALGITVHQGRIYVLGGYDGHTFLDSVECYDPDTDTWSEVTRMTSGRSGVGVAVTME

[2] = molecular target: Keap1 (Homo sapiens)
[3] = molecular target: T2, Keap1 (Homo sapiens); assay: not stated; potency of LS146-scFv against its Fab form (Supplementary Fig. S6)
T2 construct: Keap1, BTB-Kelch substrate adaptor protein; the crystallised construct is in PDB 5F72; source: recombinant, purified (procedures in Supplementary Methods)

IC50 [1]: 79 nM
B1: LS146-scFv (scFv)
scFv: EVQLVESGGGLVQPGGSLRLSCAASGFAISASSIHWVRQAPGKCLEWVASIDPETGETLYAKSVAGRFTISADTSKNTAYLQMNSLRAEDTAVYYCARAYAGDGVYYADVWGQGTLVTVSSGGGGSGGGGSGGGGSGGGGSDIQMTQSPSSLSASVGDRVTITCRASQSVSSAVAWYQQKPGKAPKLLIYSASSLYSGVPSRFSGSRSGTDFTLTISSLQPEDFATYYCQQSYSFPSTFGCGTKVEIKRT
notes: VH of LS146-scFv; (Gly4Ser)4 linker; VL of LS146-scFv; two residues between VL and the TEV site; also called scFv-LS146; source: CHO-S XE cells, transiently transfected, purified (HisTrap excel, His tag removed, HisTrap flow-through, Superdex 75); not shown: His10 (after a TEV protease cleavage site), C-terminal, cleaved

binding result [2]: binds
B2: G55 (antibody, V domains shown)
VH: EVQLVESGGGLIRPGGSLRLSCKGSGFIFENFGFGWVRQGPGKGLEWVSGTNWNGGDSRYGDSVKGRFTISRDNSNNFVYLQMNSLRPEDTAIYYCARGTDYTIDETGERYQGSGTFWYFDVWGRGTLVTVSS
VL: EIVLTQSPDTLSLSPGERATLSCRASQSVHSRYFAWYQHKPGQPPRLLIYGGSTRATGIPNRFSAGGSGTQFTLTVNRLEAEDFAVYYCQQYGASPYTFGQGTKVEIR

binding result [2]: binds
B3: G56 (antibody, V domains shown)
VH: B2 VH with Y111A
VL: EIVLTQSPATLSVSPGERATLSCRASQNVHPRYFAWYQQKRGQSPRLLIHSGSTRAAGIADRFSGGGSGMHFTLTITRVEPEDFAVYFCQQYGGSPYTFGQGTRVELR

binding result [2]: binds
B4: G54 (antibody, V domains shown)
VH: EVQLVESGGGLVQPGGSLRLSCAASGFAISASSIHWVRQAPGKGLEWVASISPETGETYYADSVAGRFTISADTSKNTAYLQMNSLRAEDTAVYYCARQGYAARSGAGFDYWGQGTLVTVSS
VL: DIQMTQSPSSLSASVGDRVTITCRASQSVSSAVAWYQQKPGKAPKLLIYSASSLYSGVPSRFSGSRSGTDFTLTISSLQPEDFATYYCQQSYSFPSTFGQGTKVEIK

fold lower potency than the Fab form (LS146 Fab) [3]: 3 fold
B5: LS146-scFv (scFv, V domains shown)
VH: EVQLVESGGGLVQPGGSLRLSCAASGFAISASSIHWVRQAPGKCLEWVASIDPETGETLYAKSVAGRFTISADTSKNTAYLQMNSLRAEDTAVYYCARAYAGDGVYYADVWGQGTLVTVSS
VL: B4 VL with Q100C
notes: VH of LS146; (Gly4Ser)4 linker, written out; VL of LS146; The His10 tag is cleavable by TEV protease; also called LS146 formatted as a single chain Fv; crystal LS146-scFv; source: CHO-S XE cells; purification in Supplementary Methods
